Reference: US20170334973A1 (INTEGRATED BIOTHERAPEUTICS, published 2017)

B1: FVM05 (antibody, V domains shown)
VH: QVQLQESGPGLVKPSETLSLTCAVSGFSISSGYGWSWIRQPPGKGLEWIGYIGGSSGSTSYNPSLKSRVTLSADTSKNQFSLKLSSVTAADTAVYYCARRYSSYRSWFDVWGPGVLVTVSS
VL: SSGLTQPRSVSVSPGQTARITCGGDNIGSKSVHWYQQKPPQAPVLVIYADSERPSGIPERFSGSNSGNTATLTISGVEAGDEADYYCQVWDSSSDHWVFGGGTRLTVL
B2: FVM01P (antibody, V domains shown)
VH: QVQLQESGPGLVKPSETLSLTCTVSGASISNYRWNWIRQPPGKGLEWIGEINGYSGSTNYNPSLKSRVTISKDASKNQFSLKLTSVTAADTAVYYCPIIGGFTLEWFDVWGPGVLVTVSS
VL: DVVLTQSPSSLSASVGDRVTITCRASQGIRNYLNWYQQKPRKAPKLLIYAASSLQSGVPSRFSGSGSGTEFTLTISSLQAEDFATYYCLQGYRTPFTFGPGTKLDIKR
B3: FVM29 (antibody, V domains shown)
VH: EVQLVQSGAEVKRPGESLKISCQTSGNSFTNNWISWVRQMPGKGLEWMGAIDPSDSETRYSPSFQGQVTISADKSINTAYLQWSSLKASDTATYYCVKGSETWGQGVLVTVSS
VL: QPVLTQPASLSASPGASASLTCTFSGGINVAGYNILWYQQKAGSPPRYLLRYKSDSTKDQGSGVPSRFSGSKDASANTGILRISGLQSEDEADYYCAIGHSSGWIFGGGTRLTVL
B4: FVM39 (antibody, V domains shown)
VH: EVQLVQSGAEVKRPGESLRISCKTSGYSFTDSWISWVRQMPGKGLEWLGSIYPGDSETKYNPSFQGHVTISADKSVTTTYLKWSSLKASDTATYYCVKGSETWGQGVLVTVSS
VL: QPVLTQPASLSASPGASASLTCTFSGGINVAGYNILWYQQKAGSPPRYLLRYKSDSTKDQGSGVPSRFSGSKDASANTGILRISGLQSEDEADYYCAIGHSSGWIFGGGTRLTVL
B5: FVM07 (antibody, V domains shown)
VH: EVQLVQSGAEVKRPGESLTISCKTSGYSFTDSWIGWVRQMPGKGLEWMGSIYPGDSDTKYNPSFQGHVTISADKSISTTYLQWSSLKASDTATYYCVAREAYWGQGVLVTVSS
VL: QPVLTQPASLSASPGASASLTCTFSGGINVAGYHIFWYQQKPGSPPRYLLRYKSDSDKGQGSGVPSRFSGSKDASANTGILRISGLQSEDEADYYCAIGHSSGVLFGGGTRLTVL
B6: FVM10 (antibody, V domains shown)
VH: QVQLVQSGAEVKRPGESLKISCQTSGYSFTDSWVAWVRQMPGKGLEWLGSIYPGDSETKYNPSFQGHVTISADKSISTAYLQWSSLKASDTATYYCAKGSETWGQGLRVTVSS
VL: QAGLTQPASLSASPGASASLTCTFSGGINVAGYNILWYQQKPGSPPRYLLRYKSDSDKDQGSGVPSRFSGSKDASANTGILRISGLQSEDEADYYCAIGHSSGWIFGGGTRLTVL
B7: FVM08 (antibody, V domains shown)
VH: EVQLVQSGAEVKRPGESLTISCKTSGYSFTDSWVAWVRQMPGKGLEWMGSIYPGDSDTRYNPSFEGQVTISADKSISTTYLQWSSLRASDTATYYCVKGADDWGQGVLVTVSS
VL: QPVLTQPASLSASPGASASLTCTFSGGINVAGYNILWYQQKAGSPPRYLLRYKSDSTKDQGSGVPSRFSGSKDASANTGILRISGLQSEDEADYYCAIGHSSGWIFGGGTRLTVL
B8: FVM14 (antibody, V domains shown)
VH: EVQLVQSGAEVKRPGESLKISCQTSGYSFTSTWITWVRQMPGKGLEWLGSIYPGDSETKYNPSFQGHVTISADKSISTTYLQWNSLKASDTATYYCVKGSETWGQGVLVTVSS
VL: QAVVTQPASLSASPGASASLTCTFSGGINVAGYNILWYQQKAGSPPRYLLRYKSDSTKDQGSGVPSRFSGSKDASANTGILRISGLQSEDEADYYCAIGHSSGWIFGGGTRLTVL
B9: FVM33 (antibody, V domains shown)
VH: QVQLVQSGAEVKRPGESLKISCKTSRYSFTSSWIGWVRQMPGKGLEWLGSIYPGDSDTRYNPSFQGHVTISADKSVTTTYLKWSSLKASDTATYYCVKGSETWGQGVLVTVSS
VL: QPVLTQPASLSASPGASASLTCTFSGGINVAGYNILWYQQKAGSPPRYLLRYKSDSTKDQGSGVPSRFSGSKDASANTGILRISGLQSEDEADYYCAIGHSSGWIFGGGTRLTVL
B10: FVM22 (antibody, V domains shown)
VH: EVQLVQSGAEVKRPGESLTISCKTSGYSFTDSWVAWVRQMPGKGLEWLGSIYPGDSETKYNPSFQGHVTISADKSISTAYLQWSSLKASDTATYYCAKGSETWGQGVLVTVSS
VL: SSGLTQPASLSASPGASASLTCTFSGGINVAGYNILWYQQKAGSPPRYLLRYKSDSTKDQGSGVPSRFSGSKDASANTGILRISGLQSEDEADYYCAIGHSSGWIFGGGTRLTVL
B11: FVM26 (antibody, V domains shown)
VH: QVQLVQSGAEVKRPGESLRISCKTSGYTFTDYWIAWVRQMPGKGLEWMGSIYPGDSETKYNPSFQGHVTISADKSVTTTYLKWSRLKASDTATYYCVKGSETWGQGVLVTVSS
VL: QPVLTQPASLSASPGASASLTCTFSGGINVAGYNILWYQQKAGSPPRYLLRYKSDSTKDQGSGVPSRFSGSKDASANTGILRISGLQSEDEADYYCAIGHSSGWIFGGGTRLTVL
B12: FVM31 (antibody, V domains shown)
VH: QVQLVQSGAEVKRPGESLTISCKTSGYSFTDSWVAWVRQMPGKGLEWLGSIYPGDSDARYNPSFQGHVTISADTSVTTTYLKWSSLKASDTATYYCVKGSETWGQGVLVTVSS
VL: KPMLTQPASLSASPGASASLTCTFSGGINVAGYNILWYQQKAGSPPRYLLRYKSDSTKDQGSGVPSRFSGSKDASANTGILRISGLQSEDEADYYCAIGHSSGWIFGGGTRLTVL
B13: FVM36 (antibody, V domains shown)
VH: EVQLVQSGAEVKRPGESLTISCKTSGYSFTDNWISWVRQMPGKGLEWMGSIYPGDSETKYNPSFQGHVTISADKSVTTTYLKWSSLKASDTATYYCVKGSETWGQGVLVTVSS
VL: QSVLTQPASLSASPGASASLTCTFSGGINVAGYNILWYQQKAGSPPRYLLRYKSDSTKDQGSGVPSRFSGSKDASANTGILRISGLQSEDEADYYCAIGHSSGWIFGGGTRLTVL
B14: FVM06 (antibody, V domains shown)
VH: EVQLVQSGAEVKRPGESLTISCKTSGYSFTNYWISWVRQMPGEGLEWMGAIDPSDSDTRYSPSFQGQVTMSADKSITTAYLQWSSLKASDTATYYCVKGSETWGQGVLVTVSS
VL: QPVLTQPASLSASPGASASLTCTFSGGINVAGYNILWYQQKAGSPPRYLLRYKSDSTKDQGSGVPSRFSGSKDASANTGILRISGLQSEDEADYYCAIGHSSGWIFGGGTRLTVL
B15: FVM42 (antibody, V domains shown)
VH: EVQLVESGAEVKRPGESLTISCKTSGYSFTDSWVAWVRQMPGKGLEWMGSIYPGDSETKYNPSFQGHVTISADKSVTTTYLKWSSLKASDTATYYCVKGSETWGQGVLVTVSS
VL: QTVVTQPASLSASPGASASLTCTFSGGINVAGYNILWYQQKAGSPPRYLLRYKSDSTKDQGSGVPSRFSGSKDASANTGILRISGLQSEDEADYYCAIGHSSGWIFGGGTRLTVL
B16: FVM16 (antibody, V domains shown)
VH: EVQLVQSGAEVKRPGESLKISCRTSGYSFTSTWINWVRQMPGKGLEWLGSIYPGDSETKYNPSFQGHVTISADKSVTTTYLKWSSLKASDTATYYCVKGSETWGQGVLVTVSS
VL: KPMLTQPASLSASPGASASLTCTFSGGINVAGYNILWYQQKAGSPPRYLLRYKSDSTKDQGSGVPSRFSGSKDASANTGILRISGLQSEDEADYYCAIGHSSGWVFGGGTRLTVL
B17: FVM11 (antibody, V domains shown)
VH: EVQLVQSGAEVKRPGESLTISCKTSGYSFTDSWVAWVRQMPGKGLEWLGSIYPGDSETKYNPSFQGHVTISADKSVTTTYLKWSSLKASDTATYYCVKGSETWGQGVLVTVSS
VL: NFMLTQPASLSASPGASASLTCTFSGGINVAGYNILWYQQKAGSPPRYLLRYKSDSTKDQGSGVPSRFSGSKDASANTGILRISGLQSEDEADYYCAIGHSSGWIFGGGTRLTVL
B18: FVM15 (antibody, V domains shown)
VH: QVQLVQSGAEVKRPGESLRISCKTSGYTFTDYWIAWVRQMPGKGLEWMGSIYPGDSETKYNPSFQGHVTISADKSVTTTYLKWSRLKASDTATYYCVKGSETWGQGVLVTVSS
VL: QPVLTQPASLSASPGASASLTCTFSGGINVAGYNILWYQQKAGSPPRYLLRYKSDSTKDQGSGVPSRFSGSKDASANTGILRISGLQSEDEADYYCAIGHSSGWIFGGGTRLTVL
B19: FVM27 (antibody, V domains shown)
VH: EVQLVQSGAEVKRPGESLKISCKTSGYSFASSWISWVRQMPGKGLEWMGAIDPSDSATRYSPSFQGQVTISADKSISTAYLQWSSLKASDTATYYCVKGSETWGQGVLVTVSS
VL: QPVLTQPASLSASPGASASLTCTFSGGINVAGYNILWYQQKAGSPPRYLLRYKSDSTKDQGSGVPSRFSGSKDASANTGILRISGLQSEDEADYYCAIGHSSGWIFGGGTRLIVL

Experiments:
MARV GPddmuc = MARV GPddmuc (Marburg virus (MARV), UniProt P35253 19-648); assay: native ELISA
EBOV GPddmuc = EBOV GPddmuc (Ebola virus (EBOV), UniProt Q05320 33-650); assay: ELISA
SUDV GPddmuc = SUDV GPddmuc (Sudan virus (SUDV), UniProt Q66814 33-650); assay: ELISA

| Binder | binding result (MARV GPddmuc) | EC50 (EBOV GPddmuc) [nM] | EC50 (SUDV GPddmuc) [nM] |
| --- | --- | --- | --- |
| B1 | no binding | 2.67 | – |
| B2 | no binding | 0.057 | 0.047 |
| B3 | no binding | – | 12.8 |
| B4 | no binding | 0.027 | 0.02 |
| B5 | no binding | 0.119 | 0.491 |
| B6 | no binding | 0.079 | 0.082 |
| B7 | no binding | 0.461 | 0.048 |
| B8 | no binding | 0.086 | 0.077 |
| B9 | no binding | 0.04 | 0.04 |
| B10 | no binding | 0.067 | 0.6 |
| B11 | no binding | 0.1 | 0.08 |
| B12 | no binding | 0.107 | 0.093 |
| B13 | no binding | – | – |
| B14 | no binding | 0.059 | 0.05 |
| B15 | no binding | – | – |
| B16 | no binding | 0.066 | 0.059 |
| B17 | no binding | 0.059 | 0.053 |
| B18 | no binding | 0.042 | 0.035 |
| B19 | no binding | 0.047 | 0.04 |
